{
  "source": "paper PMC10583499",
  "about": "(Science translational medicine, 2023)",
  "binders": {"B1": {"name": "Genentech aNRP2B antibody (antibody, V domains shown)", "VH": "EVQLVESGGGLVQPGGSLRLSCAASGFTITSSGIHWVRQAPGKGLEWVARITPYDGSTDYADSVKGRFTISADTSKNTAYLQMNSLRAEDTAVYYCARYRGRLLFDYWGQGTLVTVSS", "VL": "not shown"}, "B2": {"name": "recombinant human VEGF-C, untagged (ligand, UniProt P49767 112-227, looked up)", "chain": "AHYNTEILKSIDNEWRKTQCMPREVCIDVGKEFGVATNTFFKPPCVSVYRCGGCCNSEGLQCMNTSTSYLSKTLFEITVPLSQGPKPVTISFANHTSCRCMSKLDVYRQVHSIIRR"}, "B3": {"name": "aNRP2-10 Fab (Fab, V domains shown)", "VH": "EVQLVQSGAEVKKPGATVKISCKVSGFNIKDYYIHWVQQAPGKGLEWMGRIDVEDDETKYAPKFQGRVTITADTSTDTAYMELSSLRSEDTAVYYCATPIYGSREAWFAYWGQGTLVTVSS", "VL": "DIQMTQSPSSLSASVGDRVTITCTASSSVSSSYLHWYQQKPGKAPKLLIYRTSNLASGVPSRFSGSGSGTDFTLTISSLQPEDFATYYCHQYYRSPPTFGGGTKVEIK"}},
  "key": {"[1]": {"molecular_target": "biotinylated NRP2 (epitope binning) (Homo sapiens, UniProt O60462-3, biotin (site not stated))", "experiment": "BLI"}, "[2]": {"molecular_target": "T1, human NRP2 (v2, NM_003872.3), untagged, stably overexpressed on Expi293F cells (Expi293F-hNRP2) (human, UniProt O60462-3 21-926)", "T1 sequence (looked up)": "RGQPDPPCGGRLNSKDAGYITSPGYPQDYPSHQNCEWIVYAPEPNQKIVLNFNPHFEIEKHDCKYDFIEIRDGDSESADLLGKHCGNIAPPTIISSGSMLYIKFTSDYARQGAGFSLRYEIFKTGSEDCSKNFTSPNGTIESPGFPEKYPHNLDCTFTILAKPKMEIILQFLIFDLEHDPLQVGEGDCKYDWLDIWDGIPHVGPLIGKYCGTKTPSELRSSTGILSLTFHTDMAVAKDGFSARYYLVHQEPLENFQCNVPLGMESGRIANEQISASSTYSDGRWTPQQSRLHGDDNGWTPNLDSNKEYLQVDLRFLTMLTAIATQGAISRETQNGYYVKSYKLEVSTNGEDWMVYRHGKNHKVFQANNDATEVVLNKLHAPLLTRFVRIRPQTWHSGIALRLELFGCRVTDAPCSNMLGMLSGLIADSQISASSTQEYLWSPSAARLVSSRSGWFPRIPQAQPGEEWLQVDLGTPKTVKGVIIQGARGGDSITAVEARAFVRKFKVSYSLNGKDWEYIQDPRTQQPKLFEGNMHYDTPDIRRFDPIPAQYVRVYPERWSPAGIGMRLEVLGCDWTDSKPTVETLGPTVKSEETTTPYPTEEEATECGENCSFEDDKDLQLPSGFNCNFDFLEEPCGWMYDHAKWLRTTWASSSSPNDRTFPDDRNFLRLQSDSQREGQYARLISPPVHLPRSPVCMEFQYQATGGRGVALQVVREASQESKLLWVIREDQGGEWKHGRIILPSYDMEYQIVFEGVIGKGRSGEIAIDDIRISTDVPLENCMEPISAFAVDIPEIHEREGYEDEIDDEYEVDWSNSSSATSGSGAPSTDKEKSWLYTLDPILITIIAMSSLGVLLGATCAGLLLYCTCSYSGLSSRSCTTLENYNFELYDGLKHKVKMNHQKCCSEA", "experiment": "flow cytometry on cells"}, "[3]": {"molecular_target": "His-tagged hNRP2 (amino acids 146 to 595), a2b1b2 domains, for crystallization (human, UniProt O60462-3)", "experiment": "crystal structure"}},
  "data": [
    {"binder": "B1", "values": [
      {"measurement": "binding result", "setting": "[1]", "value": "binds"}
    ]},
    {"binder": "B2", "values": [
      {"measurement": "EC50", "setting": "[2]", "value": 0.6, "unit": "nM"}
    ]},
    {"binder": "B3", "values": [
      {"measurement": "binding result", "setting": "[3]", "value": "binds"}
    ]}
  ]
}
